Data reported in patent KR20230087219A (dated 2023).

Key:
[1] = target: T1, MERS-CoV nucleocapsid protein (Sino Biological Cat. No. 40068V08B) (MERS-CoV, UniProt K9N4V7 1-411); assay: indirect LFIA, NP fixed on nitrocellulose, hybridoma culture medium
T1 construct: also called MERS-CoV NP; MERS NP

[2] = target: T2, SARS-CoV nucleocapsid protein (Sino Biological Cat. No. 40143-V08B) (SARS-CoV, UniProt P59595 1-422); assay: as above
T2 construct: also called SARS-CoV NP

Row | Binder | binding result [1] | binding result [2]
1 | 54G10 (antibody, V domains shown, also called monoclonal antibody 54G10) VH: EVTLKVCGPGILQPSQTLSLTCSFSGFSLSTSGMGVGWIRQPSGKGLEWLAHIWWDDVKRYNPALKSRLTISKDTSSSQVFLKIASVDTADTATYYCARYYRYDVRWGQGTLVTVSA VL: DIVMTQTPKFLLVSAGDRVTITCKASQSVSNDVAWYQQKPGQSPTLLIYSASNRYTGVPDRFTGSGYGTDFTFTISTVQAEDLAVYFCQQDYSSPLTFGAGTKLELK | no binding | no binding
2 | 79C12 (antibody, V domains shown, also called monoclonal antibody 79C12) VH: EVKLEESGGGLVQPGGSMKLSCVASGFTFSDYWMNWVRQSPEKGLEWVAEIRLKSNNYATHYAESVKGRFTISRDDSKSSVYLQMNNLRAEDTGIYYCTRAAMDYWGQGTSVTVSS VL: not shown | no binding | no binding
3 | 54G6 (antibody, V domains shown, also called monoclonal antibody 54G6) VH: EVQGVESGGGLVQPGGSMKLSCAASGFTFSDYWMNWVRQSPEKGLEWVGEIRLKSNNYATHYAESVKGRFTISRDDSKSSIHLQMNNLRAEDTGIYYCTRYAMDYWGQGTTVTVSS VL: GIVMTQSPSSLAVSPGEKVTMSCKSSQSLLNSRTRKNHLAWYQQKPGQSPKLLIYWASTKDSGVPDRFTGSGSGTDFTLTISSVQAEDLAVYYCKQSYNLFTFGSGTKLEIK | no binding | no binding
